# Reference: article PMC4351142 (Structure (London, England : 1993), 2015)
# T1: CHIP-TPR domain (HsCHIP 21-154) (human, UniProt Q9UNE7 21-154)
# T1 sequence (looked up): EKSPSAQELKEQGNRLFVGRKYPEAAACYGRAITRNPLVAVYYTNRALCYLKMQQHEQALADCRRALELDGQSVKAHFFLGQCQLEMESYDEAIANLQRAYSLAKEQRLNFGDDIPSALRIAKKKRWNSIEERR
# How the values were obtained:
# [1] = biological target: CHIP-TPR domain (HsCHIP 21-154) (human) (UniProt Q9UNE7); assay: NMR titration
# [2] = biological target: T1, CHIP-TPR domain (HsCHIP 21-154); assay: crystal structure
Kd [1] [µM],binding result [2],Molecule
> 100,,Hsc70-lid-tail-ΔGPTIEEVD (domain or fragment)
,binds,"HsHsc70_(541-646)Δ_(626-638) (domain or fragment, human, UniProt P11142 541-646, looked up) SLESYAFNMKATVEDEKLQGKINDEDKQKILDKCNEIINWLDKNQTAEKEEFEHQQKELEKVCNPIITKLYQSAGGMPGGMPGGFGPTIEEVD"
